{"source": "paper PMC7527721", "about": "“Beyond Toxin Transport: Novel Role of ABC Transporter for Enzymatic Machinery of Cereulide NRPS Assembly Line” (mBio, 2020)", "key": {"[1]": {"target": "C-terminal condensation domain C* of CesA (BACTH fusion) (Bacillus cereus F4810/72) (UniProt Q20CI9)", "assay": "two-hybrid; BACTH in E. coli BTH101, β-galactosidase activity (Miller assay, ONPG, 28°C) of cells from LB-IPTG plates, normalized to the negative control (T18 and T25 alone)"}, "[2]": {"target": "T1, CesD, transmembrane protein of the ABC transporter CesCD (BACTH fusion) (Bacillus cereus F4810/72, UniProt Q20CI6 1-268)", "T1 construct": "CesD, transmembrane protein of the ABC transporter CesCD, B. cereus F4810/72, NCBI ABK00530.1; also called T25-CesD; source: bacterial two-hybrid (BACTH) fusion, E. coli BTH101; not shown: T18 or T25 fragment of B. pertussis adenylate cyclase (several combinations tested), N-terminal or C-terminal, kept", "T1 sequence": "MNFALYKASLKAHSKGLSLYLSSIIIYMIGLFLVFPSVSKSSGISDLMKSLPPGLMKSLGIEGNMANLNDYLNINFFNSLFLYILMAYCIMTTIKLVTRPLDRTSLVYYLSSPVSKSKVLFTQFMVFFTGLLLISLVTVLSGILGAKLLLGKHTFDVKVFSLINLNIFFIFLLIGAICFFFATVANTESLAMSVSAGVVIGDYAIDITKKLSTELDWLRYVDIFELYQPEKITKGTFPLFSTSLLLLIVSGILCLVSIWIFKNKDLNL", "assay": "two-hybrid; BACTH in E. coli BTH101, β-galactosidase activity (Miller assay, ONPG, 28°C) of cells from LB-IPTG plates, normalized to the negative control (T18 and T25 alone)", "conditions": "partners not purified"}}, "data": [{"molecule": "CesC K40M (BACTH fusion) (from UniProt Q20CI7 1-291) (natural protein)", "values": [{"measurement": "decrease in β-galactosidase activity against wild-type CesC", "setting": "[1]", "value": 30, "unit": "%"}]}, {"molecule": "CesC, ATPase of the ABC transporter CesCD (BACTH fusion) (natural protein, also called T18-CesC; CesC-T18; source: bacterial two-hybrid (BACTH) fusion, E. coli BTH101; not shown: T18 or T25 fragment of B. pertussis adenylate cyclase (several combinations tested), N-terminal or C-terminal, kept) MIKIEGLTKEFGNGKGIFDVTFEVKQGEVFGFLGPNGAGKSTTIRHLMGFIKPSKGAATINGFDCWKEADQVKKRVGYLPGEIAFPEEMTAYDFIRLIAGMKGMSDLGRAEEFIEKFQLDMRVHIKKMSKGMKQKLAIVAAFLHDPDILILDEPSTGLDPLMQNILVDFILEEKKCGKTILISSHIFDEIKDTADTICIIKNGKIVESGDLKTLKSAQKRYLKAYFTQEVDVELLQRSNLQIEKVENLVATILIQQNINEIMRELMKYDLINVEIMEPEIKDIFIKHYENR", "values": [{"measurement": "β-galactosidase activity, fold of the negative control", "setting": "[2]", "value": "~20", "unit": "fold"}]}]}
